Tests used:
Assay in all cases: ELISA, lectin-captured E1E2 lysate, Ab 1 ug/ml;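 also: E1E2 captured on Galanthus nivalis lectin-coated plates, bound test antibody read out by an HRP-linked secondary antibody and TMB colour development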
[1] = target: E1E2 complex (H77) with E1 mutation S273A (HCV genotype 1a, isolate H77, UniProt P27958 192-383; P27958 384-746)
[2] = target: E1E2 complex (H77) with E1 mutation R259A (HCV genotype 1a, isolate H77, UniProt P27958 192-383; P27958 384-746)
[3] = target: E1E2 complex (H77) with E1 mutation F293A (HCV genotype 1a, isolate H77, UniProt P27958 192-383; P27958 384-746)
[4] = target: E1E2 complex (H77) with E1 mutation W353A (HCV genotype 1a, isolate H77, UniProt P27958 192-383; P27958 384-746)
[5] = target: E1E2 complex (H77) with E1 mutation P228A (HCV genotype 1a, isolate H77, UniProt P27958 192-383; P27958 384-746)
[6] = target: E1E2 complex (H77) with E1 mutation H298A (HCV genotype 1a, isolate H77, UniProt P27958 192-383; P27958 384-746)
[7] = target: E1E2 complex (H77) with E1 mutation M323A (HCV genotype 1a, isolate H77, UniProt P27958 192-383; P27958 384-746)
[8] = target: E1E2 complex (H77) with E1 mutation M318A (HCV genotype 1a, isolate H77, UniProt P27958 192-383; P27958 384-746)
[9] = target: E1E2 complex (H77) with E1 mutation N305A/N234A (HCV genotype 1a, isolate H77, UniProt P27958 192-383; P27958 384-746)
[10] = target: E1E2 complex (H77) with E1 mutation G278A (HCV genotype 1a, isolate H77, UniProt P27958 192-383; P27958 384-746)
[11] = target: E1E2 complex (H77) with E1 mutation N205A (HCV genotype 1a, isolate H77, UniProt P27958 192-383; P27958 384-746)
[12] = target: E1E2 complex (H77) with E1 mutation A319G (HCV genotype 1a, isolate H77, UniProt P27958 192-383; P27958 384-746)
[13] = target: E1E2 complex (H77) with E1 mutation V194A (HCV genotype 1a, isolate H77, UniProt P27958 192-383; P27958 384-746)
[14] = target: E1E2 complex (H77) with E1 mutation H316A (HCV genotype 1a, isolate H77, UniProt P27958 192-383; P27958 384-746)
[15] = target: E1E2 complex (H77) with E1 mutation W320A (HCV genotype 1a, isolate H77, UniProt P27958 192-383; P27958 384-746)
[16] = target: E1E2 complex (H77) with E1 mutation T329A (HCV genotype 1a, isolate H77, UniProt P27958 192-383; P27958 384-746)
[17] = target: E1E2 complex (H77) with E1 mutation N196A/N234A (HCV genotype 1a, isolate H77, UniProt P27958 192-383; P27958 384-746)
[18] = target: E1E2 complex (H77) with E1 mutation R317A (HCV genotype 1a, isolate H77, UniProt P27958 192-383; P27958 384-746)
[19] = target: E1E2 complex (H77) with E1 mutation Y192A (HCV genotype 1a, isolate H77, UniProt P27958 193-383; P27958 384-746)
[20] = target: E1E2 complex (H77) with E1 mutation Q302A (HCV genotype 1a, isolate H77, UniProt P27958 192-383; P27958 384-746)
[21] = target: E1E2 complex (H77) with E1 mutation H261A (HCV genotype 1a, isolate H77, UniProt P27958 192-383; P27958 384-746)
[22] = target: E1E2 complex (H77) with E1 mutation N305A/N325A (HCV genotype 1a, isolate H77, UniProt P27958 192-383; P27958 384-746)

B1: N4 IgG (antibody, V domains shown)
VH: VQLLEQSGPEVKKPGDSLRISCKMSGDSLVTTWIGWVRQKPGQGLEWMGIINPGDSSTNIYPGDSATRYGPSFQGQVTISIDKSTSTAYLQWNNVKASDTGIYYCARHVPVPISGTFLWREREMHDFGYFDDWGQGTLVIVSS
VL: ELTLTQSPGTLSLSPGERATLSCRASQSVSNNYLAWYQQKPGQAPRLLIYGASSRATGIPDRFSGSGSGTGFTLIISRLEPEDFAVYYCQQYGSSSITFGQGTRLEIKR
notes: also called IgG N4
With B1 the “Binding relative to wt (%)” value [1] was 70%, the “Binding relative to wt (%)” value [2] was 102% and the “Binding relative to wt (%)” value [3] was 95%. The “Binding relative to wt (%)” value [4] was 70%, the “Binding relative to wt (%)” value [5] was 38% and the “Binding relative to wt (%)” value [6] was 62%. For the same binder, the “Binding relative to wt (%)” value [7] was 99%, the “Binding relative to wt (%)” value [8] was 92% and the “Binding relative to wt (%)” value [9] was 30%. For the same binder, the “Binding relative to wt (%)” value [10] was 68%, the “Binding relative to wt (%)” value [11] was 3% and the “Binding relative to wt (%)” value [12] was 113%. For the same binder, the “Binding relative to wt (%)” value [13] was 109%, the “Binding relative to wt (%)” value [14] was 70% and the “Binding relative to wt (%)” value [15] was 121%. For the same binder, the “Binding relative to wt (%)” value [16] was 114%, the “Binding relative to wt (%)” value [17] was 32% and the “Binding relative to wt (%)” value [18] was 98%. The “Binding relative to wt (%)” value [19] was 122%, the “Binding relative to wt (%)” value [20] was 6% and the “Binding relative to wt (%)” value [21] was 106%. The “Binding relative to wt (%)” value [22] was 74%.

Reference: patent publication US20110311550A1 (Scripps Research, published 2011)
